Reference: publication PMC3408589 (Chemistry & biology, 2012)

Biological target: the molecule itself
Test: cross-linking

B1: untagged human ribonucleotide reductase α expressed in COS-1 cells (monocistronic cassette) (enzyme, UniProt P23921 1-792, looked up)
chain: MHVIKRDGRQERVMFDKITSRIQKLCYGLNMDFVDPAQITMKVIQGLYSGVTTVELDTLAAETAATLTTKHPDYAILAARIAVSNLHKETKKVFSDVMEDLYNYINPHNGKHSPMVAKSTLDIVLANKDRLNSAIIYDRDFSYNYFGFKTLERSYLLKINGKVAERPQHMLMRVSVGIHKEDIDAAIETYNLLSERWFTHASPTLFNAGTNRPQLSSCFLLSMKDDSIEGIYDTLKQCALISKSAGGIGVAVSCIRATGSYIAGTNGNSNGLVPMLRVYNNTARYVDQGGNKRPGAFAIYLEPWHLDIFEFLDLKKNTGKEEQRARDLFFALWIPDLFMKRVETNQDWSLMCPNECPGLDEVWGEEFEKLYASYEKQGRVRKVVKAQQLWYAIIESQTETGTPYMLYKDSCNRKSNQQNLGTIKCSNLCTEIVEYTSKDEVAVCNLASLALNMYVTSEHTYDFKKLAEVTKVVVRNLNKIIDINYYPVPEACLSNKRHRPIGIGVQGLADAFILMRYPFESAEAQLLNKQIFETIYYGALEASCDLAKEQGPYETYEGSPVSKGILQYDMWNVTPTDLWDWKVLKEKIAKYGIRNSLLIAPMPTASTAQILGNNESIEPYTSNIYTRRVLSGEFQIVNPHLLKDLTERGLWHEEMKNQIIACNGSIQSIPEIPDDLKQLYKTVWEISQKTVLKMAAERGAFIDQSQSLNIHIAEPNYGKLTSMHFYGWKQGLKTGMYYLRTRPAANPIQFTLNKEKLKDKEKVSKEEEEKERNTAAMVCSLENRDECLMCGS
stoichiometry N: 6
